Data on four molecules can be found in paper PMC4985284, “Monochromatic multicomponent fluorescence sedimentation velocity for the study of high-affinity protein interactions” (eLife, 2016).

B1: fusion protein of GluA3-ATD and rsEGFP2 (rsEGFP2-GluA3) (domain or fragment, UniProt P19492 23-408, looked up)
chain: GFPNTISIGGLFMRNTVQEHSAFRFAVQLYNTNQNTTEKPFHLNYHVDHLDSSNSFSVTNAFCSQFSRGVYAIFGFYDQMSMNTLTSFCGALHTSFVTPSFPTDADVQFVIQMRPALKGAILSLLSYYKWEKFVYLYDTERGFSVLQAIMEAAVQNNWQVTARSVGNIKDVQEFRRIIEEMDRRQEKRYLIDCEVERINTILEQVVILGKHSRGYHYMLANLGFTDILLERVMHGGANITGFQIVNNENPMVQQFIQRWVRLDEREFPEAKNAPLKYTSALTHDAILVIAEAFRYLRRQRVDVSRRGSAGDCLANPAVPWSQGIDIERALKMVQVQGMTGNIQFDTYGRRTNYTIDVYEMKVSGSRKAGYWNEYERFVPFSDQQIS
modifications: native complex glycosylation
notes: GluA3 AMPA receptor amino-terminal domain, residues Gly23-Ser408; The fluorescent protein is the detection tag and is not written as a part; it is joined by SGSG (before) and SGS (after); The methods call the fluorescent protein rsEGFP, the results rsEGFP2; Cut with thrombin; also called rsEGFP-GluA3 ATD fusion construct; source: HEK293T, transient transfection, secreted, purified (HiTrap NTA, …)
B2: Dylight488-labeled GluA2-ATD (amino-terminal domain of the AMPA receptor GluA2) (domain or fragment, UniProt P19491 22-404, looked up)
chain: VSSNSIQIGGLFPRGADQEYSAFRVGMVQFSTSEFRLTPHIDNLEVANSFAVTNAFCSQFSRGVYAIFGFYDKKSVNTITSFCGTLHVSFITPSFPTDGTHPFVIQMRPDLKGALLSLIEYYQWDKFAYLYDSDRGLSTLQAVLDSAAEKKWQVTAINVGNINNDKKDETYRSLFQDLELKKERRVILDCERDKVNDIVDQVITIGKHVKGYHYIIANLGFTDGDLLKIQFGGANVSGFQIVDYDDSLVSKFIERWSTLEEKEYPGAHTATIKYTSALTYDAVQVMTEAFRNLRKQRIEISRRGNAGDCLANPAVPWGQGVEIERALKQVQVEGLSGNIKFDQNGKRINYTINIMELKTNGPRKIGYWSEVDKMVVTLTELPS
modifications: Dylight488 (N-hydroxysuccinimide ester-activated dye); native complex glycosylation
notes: signal peptide in the construct; secreted; Cut with thrombin after IMAC; also called DL488-GluA2; source: HEK293T, transient transfection, secreted, purified (HiTrap NTA, thrombin, HiTrap Q); labelled with Dylight488 and separated from free dye on Superdex 75; not shown: His8, C-terminal, cleaved

The target in series [1] is GluA3 ATD (Rattus norvegicus) (UniProt P19492). As to conditions: cited from earlier work.
For series [2], the target named is GluA2 ATD (Rattus norvegicus) (UniProt P19491). The following applies: cited from earlier work.
The target is the same in series [3]. The following applies: cited from earlier work. This is another data set of the same source.
Series [4] concerns the target GluA3 ATD (Rattus norvegicus) (UniProt P19492). As to conditions: cited from earlier work. This is another data set of the same source.
Series [5] has as its target B2. In words: AUC; MCMC FDS-SV, equimolar dilution series of DL488-GluA2 and rsEGFP2-GluA3 from 0.1-30 nM, 13 mW excitation beam, 50,000 rpm, 20°C; global fit of component sw isotherms with a linked homo- and hetero-dimerization model, K_(d,22) fixed at 27.1 nM. The following applies: both partners purified.
The target in series [6] is B1. The series is described as above. The following applies: both partners purified.
Series [7] concerns the molecule itself. Kind of series: AUC; fluorescence-detected sedimentation velocity (FDS-SV), dilution series of DL488-GluA2 from 0.2 nM to 200 nM, 50,000 rpm, 20°C, 488 nm excitation; c(s) and sw isotherm with monomer-dimer model; dimer to monomers; 0.1 mg/ml unlabeled BSA added.
The target in series [8] is B1. In words: AUC; FRAP-like FDS-SV, equimolar mixtures of rsEGFP2-GluA3 and DL488-GluA2, 20 min stationary 488 nm exposure at 6.5 cm before scanning, 50,000 rpm, 20°C; component sw isotherm with competitive homo- and hetero-dimerization model. As to conditions: both partners purified.

Where “and” joins values, the source holds several entries; their conditions need not be identical. Identical values can stand only once. Like-named read-outs stand apart in the source and are kept apart here.

In the case of GluA3 ATD (from UniProt P19492), the Kd (usually a measure of binding affinity in units of concentration) in series [1] is 5600 nM.
GluA2 ATD (from UniProt P19491): the Kd in series [2] is 1.8 nM; in series [3], 20.5 nM; in series [4] it was 1.3 nM.
In the case of B1, in series [5], the stoichiometry N (commonly the number of molecules, sites or subunits per partner or assembly) turned out to be 1.
B2: the Kd was 0.32 nM in series [6]; 24 nM and 27.1 nM in series [7]; 0.68 nM in series [8]. The “stoichiometry N” value in series [7] stood at 2.
